Residue numbers refer to the chain shown, from its start. Read-outs that look alike come from different tables or passages of the source.
Legend:
[1] = tested on: CYV-VP3 (Culex Y virus); experiment: competition
[2] = target: Dcr-2;Loqs-PD (LqPD) (Drosophila melanogaster?;Drosophila …, UniProt A1ZAW0;Q9VJY9-4 1-1722;1-359, |); experiment: single-molecule TIRF
[3] = target: T1, DXV-VP3 (Drosophila X virus, UniProt Q96724 724-1032); experiment: single-molecule TIRF
T1 sequence: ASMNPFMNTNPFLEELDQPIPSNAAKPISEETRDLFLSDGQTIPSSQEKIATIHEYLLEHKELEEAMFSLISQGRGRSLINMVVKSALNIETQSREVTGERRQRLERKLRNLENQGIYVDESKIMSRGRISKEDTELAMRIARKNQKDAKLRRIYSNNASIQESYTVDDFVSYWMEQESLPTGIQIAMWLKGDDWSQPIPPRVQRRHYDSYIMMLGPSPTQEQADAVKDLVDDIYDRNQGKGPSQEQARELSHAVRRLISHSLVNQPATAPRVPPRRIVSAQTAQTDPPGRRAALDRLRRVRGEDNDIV

[4] = target: T2, DCV-1A (Drosophila C virus, UniProt O36966 1-97); experiment: single-molecule TIRF
T2 sequence: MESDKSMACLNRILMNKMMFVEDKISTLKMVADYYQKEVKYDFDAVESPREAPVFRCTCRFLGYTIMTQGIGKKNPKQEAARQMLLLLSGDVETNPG

[5] = target: T2, DCV-1A; experiment: single-molecule TIRF; remark: listed apart in the source
[6] = target: T2, DCV-1A; experiment: single-molecule TIRF; remark: listed apart in the source

GGCAAUGAAAGAUCGCGGGUCUGCUCAAACACUCCGUUAUGUAGCAUUCCUUGAUCGUGAGAUUCUUCUU / AAGAAGAAUCUCACGAUCAAGGAAUGCUACAUAACGGAGUGUUUGAGCAGACCCGCGAUCUUUCAUUGCC [70-nt dsRNA blunt end]
binding signal [1]: 80 % inhibition

B1: 70-nt dsRNA blunt end (dsRNA)
RNA 1: GGCAAUGAAAGAUCGCGGGUCUGCUCAAACACUCCGUUAUGUAGCAUUCCUUGAUCGUGAGAUUCUUCUU
RNA 2: AAGAAGAAUCUCACGAUCAAGGAAUGCUACAUAACGGAGUGUUUGAGCAGACCCGCGAUCUUUCAUUGCC
binding result [2]: binds

B2: 50-nt dsRNA (structured_RNA)
RNA: GGGACCUCAUCCAACAUAUCAAACUCCAUCAUCCAACAUAUCAAACUCCAGUCGAGUGGAGUUUGAUAUGUUGGAUGAUGGAGUUUGAUAUGUUGGAUGAGGUCCCAA
binding result [3]: binds | binding result [4]: binds

B3: pre-let-7a-1 (2 mismatches) (structured_RNA)
RNA: UGAGGUAGUAGGUUGUAUAGUUUUAGGGUCACACCCACCACUGGGAGAUAACUAUACAAUCUACUGUCUUUCU
binding result [5]: binds

B4: pre-miRNA (no mismatches) (structured_RNA)
RNA: B3 RNA with G5A, U6C
binding result [6]: binds
